# Values of other authors in article PMC5593754.
# Target: Glu97 (UniProt position 97, WARMAEWLCTC)
# Assay: UV-vis
# Details: unphotolyzed (dark) state, protonated Schiff base
substance,measurement,value
Anion channelrhodopsin 1 (GtACR1) S97E mutant (Guillardia theta; S97E),pKa,∼8
